Consider four molecules from paper PMC3618304.

The target of assay [1] is T1, Sec61-CPLV (S. cerevisiae).
T1 sequence (P32915 whole entry, looked up): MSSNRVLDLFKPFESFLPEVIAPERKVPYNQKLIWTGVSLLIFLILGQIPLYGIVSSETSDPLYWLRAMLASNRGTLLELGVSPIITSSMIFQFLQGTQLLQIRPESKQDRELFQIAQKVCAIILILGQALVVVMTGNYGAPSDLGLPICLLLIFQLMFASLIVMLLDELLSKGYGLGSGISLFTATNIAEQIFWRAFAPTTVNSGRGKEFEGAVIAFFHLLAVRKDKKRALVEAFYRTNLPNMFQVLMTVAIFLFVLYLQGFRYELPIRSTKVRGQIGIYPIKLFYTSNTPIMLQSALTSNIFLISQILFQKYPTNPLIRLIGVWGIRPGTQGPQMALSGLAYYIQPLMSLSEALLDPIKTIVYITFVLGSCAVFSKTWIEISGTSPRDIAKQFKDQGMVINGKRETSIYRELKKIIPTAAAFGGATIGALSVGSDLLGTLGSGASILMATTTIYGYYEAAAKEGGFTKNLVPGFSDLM
Kind of assay: split reporter (BiFC, NanoBiT); split-ubiquitin, cleavage of PLV from the bait read by quantitative immunoblot of cell lysates with anti-PLV and 125I-Protein A; ratio of cleaved PLV to Arf1p.

Assay [2] addresses T2, Ssh1-CPLV (S. cerevisiae).
T2 sequence (P38353 whole entry, looked up): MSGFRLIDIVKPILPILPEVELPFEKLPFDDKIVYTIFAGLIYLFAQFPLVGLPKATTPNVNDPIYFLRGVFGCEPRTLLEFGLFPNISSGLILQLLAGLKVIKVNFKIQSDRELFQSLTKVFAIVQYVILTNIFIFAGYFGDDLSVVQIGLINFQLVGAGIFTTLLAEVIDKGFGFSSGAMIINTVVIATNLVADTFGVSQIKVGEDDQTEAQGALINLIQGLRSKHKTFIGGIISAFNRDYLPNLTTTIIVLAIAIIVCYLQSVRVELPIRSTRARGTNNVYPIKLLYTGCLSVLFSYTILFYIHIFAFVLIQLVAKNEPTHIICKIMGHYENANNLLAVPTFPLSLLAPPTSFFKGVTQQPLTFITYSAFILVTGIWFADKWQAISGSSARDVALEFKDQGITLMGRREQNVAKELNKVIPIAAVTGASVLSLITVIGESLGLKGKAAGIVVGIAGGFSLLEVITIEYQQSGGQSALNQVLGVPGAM
Described as above.

For assay [3], the target named is T1, Sec61-CPLV (S. cerevisiae). Kind of assay: two-hybrid; split-ubiquitin, liquid beta-galactosidase assay (ONPG) on cell lysates, 30°C for 180 min, mean of 6 samples.
Assay [4] has as its target T2, Ssh1-CPLV (S. cerevisiae). The assay is described as above.

B1: Nub-Sss1p (natural protein)
chain: MARASEKGEEKKQSNNQVEKLVEAPVEFVREGTQFLAKCKKPDLKEYTKIVKAVGIGFIAVGIIGYAIKLIHIPIRYVIV
In the case of B1, the cleaved PLV relative to Arf1p (arbitrary units) in assay [1] is 15; in assay [2], 7.1. Further, the beta-galactosidase units is 6 U in assay [3] and 0.55 U in assay [4].

B2: Nub-Sec62p (natural protein)
chain: MSAVGPGSNAGASVNGGSATAIATLLRNHKELKQRQGLFQAKQTDFFRYKRFVRALHSEEYANKSARQPEIYPTIPSNKIEDQLKSREIFIQLIKAQMVIPVKKLHSQECKEHGLKPSKDFPHLIVSNKAQLEADEYFVWNYNPRTYMDYLIVIGVVSIILALVCYPLWPRSMRRGSYYVSLGAFGILAGFFAVAILRLILYVLSLIVYKDVGGFWIFPNLFEDCGVLESFKPLYGFGEKDTYSYKKKLKRMKKKQAKRESNKKKAINEKAEQN
Consider B2, for which, in assay [1], the cleaved PLV relative to Arf1p (arbitrary units) came out at 6.6.

B3: Nub-Sbh2p (natural protein)
chain: MAASVPPGGQRILQKRRQAQSIKEKQAKQTPTSTRQAGYGGSSSSILKLYTDEANGFRVDSLVVLFLSVGFIFSVIALHLLTKFTHII
Turning to B3, the cleaved PLV relative to Arf1p (arbitrary units) is 9.6 in assay [1] and 7.2 in assay [2]. In addition, the beta-galactosidase units in assay [3] is 0.28 U; in assay [4], 0.45 U.

B4: Nub-Sbh1p (natural protein)
chain: MSSPTPPGGQRTLQKRKQGSSQKVAASAPKKNTNSNNSILKIYSDEATGLRVDPLVVLFLAVGFIFSVVALHVISKVAGKLF
On to B4, for which the values for the cleaved PLV relative to Arf1p (arbitrary units) in assay [1] and in assay [2] were 18 and 7.1, respectively. For the same molecule, the beta-galactosidase units in assay [3] was 9.8 U; in assay [4], 0.43 U.
